Assay results from article PMC3989342.

Molecular target: F-actin (endogenous, detected with anti-beta-actin antibodies) (rat (endogenous in hippocampal neurons)) (UniProt P60711)
Test: FRET or BRET; antibody-based acceptor-photobleaching FRET in fixed rat hippocampal neurons, single dendritic spine heads; anti-cofilin AE774 with Alexa 488 secondary (donor), anti-beta-actin AC15 with Alexa 555 secondary (acceptor); F-actin fixed, G-actin mostly extracted; control neurons, 2 min NMDA (nLTD), chronophin (CIN) overexpression

cofilin (endogenous cofilin/ADF of rat hippocampal neurons) (from UniProt P45592 1-166) (natural protein)
ratio of FRET in the presence versus the absence of nLTD, CIN-expressing neurons: 51%
